# T1: human interleukin 5 receptor encoded by cDNA clone lambda-h5R.27 (human, UniProt Q01344 21-395)
# T1 sequence: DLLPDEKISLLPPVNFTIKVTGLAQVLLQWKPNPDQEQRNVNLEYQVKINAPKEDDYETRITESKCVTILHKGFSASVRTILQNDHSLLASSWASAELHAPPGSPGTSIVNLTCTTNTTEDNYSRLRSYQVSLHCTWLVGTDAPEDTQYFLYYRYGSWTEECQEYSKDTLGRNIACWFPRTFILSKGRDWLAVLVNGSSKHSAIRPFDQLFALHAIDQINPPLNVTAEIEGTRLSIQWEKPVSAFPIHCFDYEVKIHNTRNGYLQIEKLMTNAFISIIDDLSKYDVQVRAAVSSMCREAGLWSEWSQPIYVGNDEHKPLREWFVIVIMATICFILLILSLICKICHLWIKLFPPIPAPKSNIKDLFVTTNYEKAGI
# B1: recombinant murine interleukin 5, 35S-methionine labelled (ligand, mouse, UniProt P04401 21-133, looked up)
# chain: MEIPMSTVVKETLTQLSAHRALLTSNETMRLPVPTHKNHQLCIGEIFQGLDILKNQTVRGGTVEMLFQNLSLIKKYIDRQKEKCGEERRRTRQFLDYLQEFLGVMSTEWAMEG
# modifications: 35S-methionine labelled
# Target: T1, human interleukin 5 receptor encoded by …
# Test: radioligand binding
binder,measurement,value
B1,Kd,0.25 nM

# From article PMC2119102 (The Journal of Experimental Medicine, 1992)
